This passage reports Kd results from publication PMC4317571.

Bounds are passed on as bounds.

Assay [1] has as its target p53 K382ac peptide (Homo sapiens) (UniProt P04637). To be noted: cited from earlier work.
For assay [2], the target named is bromodomain (BD) of p300. The assay can be described thus: NMR titration.
In assay [3] the target is tandem Tudor domain (TTD) of p53-binding protein 1 (53BP1), wild type (UniProt Q12888). In words: other fluorescence titration + NMR titration.
Assay [4] has the same target. In words: other fluorescence titration.

A word on the Kd: it is the equilibrium constant for the complex coming apart. As for CBP bromodomain (from UniProt Q92793), in assay [1], the dissociation constant Kd was 187 µM.
In the case of “p53K381ac peptide (p53 acetylated at K381) (from UniProt P04637 377-386)”, the equilibrium dissociation constant (Kd) is 241 µM in assay [2] and more than 5000 µM in assay [3].
As for “p53K381acK382me2 peptide (p53 acetylated at K381 and dimethylated at K382) (from UniProt P04637 377-386)”, the Kd was found to be 282 µM in assay [2] and 0.76 µM in assay [4].
